Reference: the nanobody polyreactivity screen of Harvey et al. (2022)

Experiment: yeast display, Sf9 membrane polyspecificity reagent, FACS + sequencing; frameworks hold sequencing errors
How it was run: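 Nanobodies came from a synthetic yeast display library in Saccharomyces cerevisiae BJ5465, induced with galactose for 36–48 hours and stained for 1 hour at 4 °C with 10% biotinylated, detergent-solubilized Sf9 membrane reagent. Cells were enriched on streptavidin microbeads and then FACS-sorted, with low and high (top ~1%) gates set on anti-HA fluorescence for expression and streptavidin fluorescence for reagent binding. Each polyreactivity label reflects the gate a clone came from. Genes were amplified by colony PCR, sequenced by MiSeq 2 × 250 and filtered by CDR length.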

Sequence | polyreactivity (PSR sort gate)
QVQLVESWGGLVQAGGSLRLSCAASGFTFFYYDMGWYRQAPGKERQLVAAITWRGGRTYYADSVKGRFTISRDNAKNTVYLQMNSLKPEDTAVYYCNAYWGYAKVGQFDYWGQGTQVTVSS | high polyreactivity
QVQLVESGGGLVQAGGSLRLSCAASGLTFRDNAMGRYRQAPGKERELVATINSGGSTDYADSVKGRFTISRDNAKNTVYLQMNSLKPEDTAVYYCAVSREYYDRGWYSIFYWYVYWGQGTQVTVSS | low polyreactivity
QVQLVESGGGLVQAGGSLRLSCAASGSIFVGNAMGWYRQAPGKERELVATITSGCSTYYADSVKGRFTISRDNAMNTVYLQMNSLKPEVTAVYYCAADYDFSKFDYDYWGQGTQVTVSS | low polyreactivity
QVQLVESGGGIVQAGGSLRLSCAASGIIFRFYAMGWYRQAPGKERELVARIRSRGGSTYYADSVKGRFTISRDNAKNTVYLQMNSLKPEDTAVYYCAAGAGYPYYWGQGTQVTVSS | high polyreactivity
QVQLVESGGGLVQAGGTLRLSCAASVFTFYYNTMGWYRQAPGKERELVAGIDISGSSTYADSVKGRFTISRDNAKNTVYLQMNSLKPEDTAVYYCAAVYFWGMDYWGQGTQVTVSS | low polyreactivity
QVQLVESGGGLVQAGGSLRLSFAASGFIFDYYAMGGYRQEPGKDRELVAAISSSGRTSYADSVKGRFTISRDNAKNTVYLQMNSLKPEDTAVYYCNATWRWTRRGYDYWGQGTQVTVSS | low polyreactivity
QVHLVESGGGLVQAGGSLRLSCAASGSISGLYAMGWYRQAPGKETELVAAISFSAGSTYYADSVKGRFTISRDNAKNTVYFQMNSLKPEDTAVYYCAADGQYGGVPNTSEWTFDYWGQGTQVTVSS | low polyreactivity
QVQLVESGGVLVQAGGSLRLSCAASRGIFSGYAMGWYRQAPGKERELVASITRRGSSTYYADSVKGPFTISRDSAKNTVYLQMNSLNPEDTAVYYCHAVLRYHVLYRGYDYWGQGTQLTVSS | high polyreactivity
QVQLVESGGGLVQAGGSLRLSCAASGRIFGRYAMGWYRQEPGKERELVASISWSGDSTYYADSVKGRFTISRDNAKNTVYLQMNSLKPEDTAVYYCNADPFIRTWYNYGYWGQGTQVTVSS | low polyreactivity
QVQLVESGGGLVQAGGSLRLSCAASGITLNRNAMGWYRQAPGKERELVSRISRRGGTTYYADSVKGRFTISRDNAKNTVYLLMNSLKPEDTAVYYCNAGPYGGNPFDYSGQGTQVTVSS | high polyreactivity
QVHLVETGGCLVQAGGSLRLSCAASGRTFYQNTMGWYRQAPGKERELVAAISSGGSTHYADSVKGRFTISRDNAKNTVYLQMNSLKPEDTAVYYCAKRYFYSYRYGYWGQGTQVTVSS | high polyreactivity
QVQLVESGGGLVQAGCSLRLSCAASGSTFGYYTMGWYRQAPGKERELVAAITRSGGSTYYADSVKGRFTISRDNAKNSVYLQMTSLKPEDTAVYYCAADDYWTTFGYWGLGTQVTVSS | low polyreactivity
QVQLVESGGGLVQAGGSLRLSCAASGITFNYYAMGWYRQAPGKERELVAAISLSGGRTRYADSVKGRFTISRDNAKNTVYLQMNSLKPEDTAVYYCAAYSFRYVPWPDGMGYWGQGTQVTVSS | high polyreactivity
QVQRVESRGGLVQAGGSLRLTCAASGRTFWRYVMGWYRQAPGKERELVATISSGGSTNYAYSVKGRFTISRDNAKNTVYLQMNSLKPEDTAVYYSAAYIYDGVWVYPYYPYDYWGQGTQVTVSS | low polyreactivity
QVQLVESGGGLVQAGGSLRLSCAASGFTFYQYTMGRYRQAPGKERELVATITSDGGTNYADSVKGRFTISRDNAKNTVYLQMNSLKPEDTAVYYCARDYLSPYAVDYWGQGTQVTVSS | low polyreactivity
QVQLVESGGGLVQAGGSLRLSCAASGITFGDYAMVWYRQAPGKERELVAGINWSGDGTYYADSLKGRFTISRDKAKNTVYLQMNSLKPEDSAVYYCAAETFYDYGGYDYWGQGTQVTVSS | low polyreactivity
QVQLVESGVGLVQAGGRLRLSCAASGSTFLRYAMGWYRPAPGKERELVAAISYSGGSTYYADSVKGRFTISRDNAKNTVYLQMNSLKPEDTAVYYCNAGVFANDNGGRRDQFTWEYEYWGQGTQVTVSS | low polyreactivity
QVQLVESGGGLVQAGGSLRLSCAASGGIFRSYTMGWYRQAPGKERELVAAISSGASTSYADSVKGRFTISRDNAKNTVYLQMNSLKPEHTAVYYCAVGVLYAGYFYRYRYYYWGQGTQVTVSS | high polyreactivity
QVQLVESGGGLVQAGGSLRLSCAASGSTFYVYAMGWYRQAPGKERELVAAITSGDDTNYADSVKGRFTISRDNAKNTVYLQMNSLKPEDPAVYYCAAEAVGYGSPRGYYWYDYWGQGTQVTVSS | high polyreactivity
QVQLVESGGGLVQAGGSLRLSCAASGNTFTYYAMGWYRQAPGKERELVAAISSGGRTYYADSVKGRFTISRDNAKNTVYLQMNSLKPEDTAVYYCAARIKYGYPGPRYYYWGQGTQVTVSS | high polyreactivity
QVQLVESGGGLVQAGGSLRLSCAASGSIFNIYAMGLYRQAPGKERELVATITGIADSTYYADSVKGRFTISRDNAKNTVYLQMNSLKPEDTAVYYCAADKYVAEYDYWGQGTQVTVSS | low polyreactivity
QVQLVESGGGLVQAGGSLRLSSAASGFIIVFYAMGWYRQAPGKERELVAAITWSGGGTYYADSVKGRCTISRDNAKNTVYLQMNSLKPEDTAVYYCNAEEPQYYYVLDKLYDFWGQGTQVTVSS | low polyreactivity

Sequence | polyreactivity (PSR sort gate)
QVQLVESGGGLVHAAGSLRLSCAASGRTFRYNTMGWYRQASGKESELVARITRSGGSTYYADSVKGRFTISRDNAKNTVYLQMNSLKPEDTAVYYCAAVPILVYRWFQYYTGDYDYWGQGTQVTVSS | low polyreactivity
QVQLVESGGGLVQAGGSLRLSCAASGRIFHPNAMGWYRQAPGKERELVAAITNSGGITYADSVKGRFTISRDNAKNTVYLQMNSLKPEDTAVYYCNTATNRFHYKYRKPYDYWGQGTQVTVSS | low polyreactivity
QVQLVESGGGLVQAGGSLRLSCAASGLTFVYYTMGWYRQAPGKERELVAAISGSGDNTYYADSVKGRFTISRDNAKNTVYLQMNSLKPEDTAVYYCAADKSYYYYLFGYDYWGQGTQVTVSS | low polyreactivity
QVQLVESGGGLVQAGGSLRLSCAASGRIFRWYAMGWYRQAPGKERELVASISSGGSTNYADSVKGRFTISRDNAKNTVYLQLNSLKPEDTAVYYCAADFATPGPAYDYWGEGTQVTVSS | low polyreactivity
QVQLVESGGGLFQAGGSLRLSCAASGRTFKNNAMGWYRQAPGKERELVAAISSNGGSTYYADSVKGRFTISRDNAKNTVYLQMNSLKPEDTAVYYCAADRTIVEYYYWGQGTQVTVSS | high polyreactivity
QVQVVESGGGLVQAGGSLRLSCAPSGRTFYGNVMGWYRQAPGKERELVAAISSRGSSTRYADSVKGRFTISRDNAKNTVYLQMNRLKPEDTAVYYCAARNEYWGQGTQVTVSS | high polyreactivity
QVQLVESGGGLVQAGGRLRISCAASGFTFEYNDMGWYRQAPGKERELVASISYDSDSTYYADSVKGRFTISRDNAKNTVYLQMNSLKPEDTAVYYCNAGSSYHEYGYWGQGTQVTVSS | high polyreactivity
QVQLVESGGGLVQAGGSLRLSCAASGSTFYYNAMGWYSQAPGKERELVAAISSDGSTNYADSVKGRFTISRDNAKNTVNLQMNSLKPEDTAVYYCAKKDFYFAPSPGYYRSRDYWGQGTQVTVSS | low polyreactivity
QLQLVESGGGLVQAGGSLRLSCASSGSIFLFNAMGWYRQAAGQERELVAAITSSGTRTYYADSVKGRFTISRDNAKNTVYLQMNSLKPEDTAVYYCNAVGPVDSYHRYYYWGQGTQGTVSS | low polyreactivity
QVQLVESAGGLLQTGGSLRLSCAASGRTLWYNAMGWYRQAPGKERELVAAISSGGSTNYADSVKGRFTISRDNAKHTVYLQMNSLKPEDTAVYYCAAWLAYSSRYGYWGQGTQVTVSS | low polyreactivity
QVQLVESGGGLVQAGGSLRLSCAASGFIFRYYAMGWYRQAPGKERELVAAISWSGGSTYYADSVKGRFTISRDNAKNTVYLQMNSLKPEDTAVYYCNAVTTYGEYDYWGQGTQVTVSS | high polyreactivity
QVQLVESGGGLVQAGGSLRLSCAASGRILATYTMGWYRQAPGKERELVATITSGGRTTYADSVKGRFTISRDNAKNTVYLQMNSLKPEDTAVYYCNVANWYYRKYRPLWGRDYYWGQGTQVTVSS | high polyreactivity
QVQLLESGGRLVQAGRSLRLSCAASGRTFGPYAMGWYRQAPGKEREFVAAISSRGGRTYYADSVKGRFTISRDNAKNTVYLQLNSLKPEDTAVYYCAAEYNYSNKYLYLFLQMDYWGQGSQVTVSS | low polyreactivity
QVQLVESGGGLVQAGGSLRLSCAASGRLFSRYAMGWNRQAPGQQRELVAAITRGGGSTYYADSVKGRFTISRDNAKNTVYLQMNSLKPEDTAVYYCNKASVQYYGDVYWGQGTQVTVSS | high polyreactivity
QVQLVESGGGLVQAGGSLRLSCAASGRTFSGYAMGGDIQAPGKERELVAAITARSGSTYYADSVKGRFTISRDNAKNTVYLLMNSLKPEDTAVYYCNAPRYAARFDYWGQGTQVTVSS | high polyreactivity
QVQLVESGGGLVQAGGTLPLSCAASGRTFNGNAMGWYRQAPGKERELVATINYSGGSTYYADSVKGRFTISRDNAKNTVYLQMNSLKPEDNAVYYCAAGGYPWYLRRGGFAGYDYWGQGTQLTVSS | low polyreactivity
QVQLVESGGGLVQAGVSIRLSCAASGSIYENNAMGRYRQAPGKERELVAGITWSGGSTRYADSVKGRFTISRDNAKNTVYLQMNSLKPEDTAVYYCATDDFTYVVAKDGDYWGQGTQVTVSS | low polyreactivity
QVQLVESGGGLVQAGGSLRLSCAASGSIFSKYVMGWYRQAPGKERELVAAISWSGTRTYYADSVKGRFTISRDNAKNTVYLQMNSLKPEDTAVYYCAARRPVRVPGQYDYWGQGTQVTVSS | high polyreactivity
QVQLVESGGGLVQAGGSLRLSCAASGRIFRGNAMVWSRQAPGKERELVASISWRGASTDYADSVKGRFTISRDNAKNTVYLQMNRMKPEDTAVYYCAARVVWRISVYYVIDYNYWGQGTQVTVSS | high polyreactivity
QVQLVESGGGLVQAGGSLRLSCAASGSILTHYAMGWYRQAPGKERELVAGIPWSGTSTYYADSVKGRFTISRDNAKNTVYLQMNSLKPEDTAVYYCNARHYGWGFAWKYDYWGQGTQVTVSS | low polyreactivity
QVQLVESGGGLVQAGGSLRLSCAASGRTFRYYTMGWYRQAPGKERELVAVISRSGGNTYYADSVKGRFTISRDNAKNTVYLQMNSLKPEDTAVYYCAAKIALDNDYWGQGTQVTVSS | high polyreactivity
